# Data reported in patent publication US20240262922A1 (Merck KGaA, published 2024).
# Read-outs that look alike come from different tables or passages of the source.
# T1: recombinant cynomolgus monkey OX40L (Novoprotein cat. #CP72) (cynomolgus monkey, UniProt P23510 51-183 (human entry), limits assumed)
# T1 construct: Bought protein; also called cynomolgus OX40L
# T1 chain: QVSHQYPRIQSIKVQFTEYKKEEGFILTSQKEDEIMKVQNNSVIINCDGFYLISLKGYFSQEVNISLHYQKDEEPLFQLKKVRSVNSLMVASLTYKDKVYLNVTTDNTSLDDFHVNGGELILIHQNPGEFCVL
# T2: recombinant human OX40L protein (R&D Systems, cat. #1054-OX) (human, UniProt P23510 51-183)
# T2 construct: Bought soluble recombinant protein; also called rhOX40L; recombinant soluble OX40L
# T2 sequence: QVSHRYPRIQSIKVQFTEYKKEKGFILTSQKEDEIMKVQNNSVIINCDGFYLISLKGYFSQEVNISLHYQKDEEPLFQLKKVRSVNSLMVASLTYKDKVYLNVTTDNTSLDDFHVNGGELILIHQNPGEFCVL
# T3: mouse OX40L (mouse, UniProt P43488 51-198, limits assumed)
# T3 sequence: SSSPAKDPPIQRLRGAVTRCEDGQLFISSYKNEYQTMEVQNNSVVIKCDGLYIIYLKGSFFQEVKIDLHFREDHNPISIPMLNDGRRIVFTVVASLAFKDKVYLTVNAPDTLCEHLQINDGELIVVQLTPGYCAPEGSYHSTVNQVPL
# T4: AVI-GST-His6-hOX40L (human, UniProt P23510 51-183)
# T4 sequence: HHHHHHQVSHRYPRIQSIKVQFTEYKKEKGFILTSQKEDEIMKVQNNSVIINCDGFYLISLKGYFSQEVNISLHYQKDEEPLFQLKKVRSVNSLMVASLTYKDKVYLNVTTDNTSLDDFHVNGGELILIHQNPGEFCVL
# Legend:
# [1] = target: T1, recombinant cynomolgus monkey OX40L …; test: flow cytometry on CHO-S-OX40L cells / ELISA on recombinant OX40L (sentence does not say which)
# [2] = target: T2, recombinant human OX40L protein (R&D …); test: SPR steady state, Biacore T200; OX40L immobilised on CM5, antibody in solution
# Procedure: (§1) Recombinant OX40L proteins (human OX40L protein, R&D systems, cat. #1054-OX; cynomolgus monkey OX40L, Novoprotein cat. #CP72) were immobilized onto Biacore CM5 sensor chips and anti-OX40L antibodies were bound to this surface at a range of concentrations. The response at steady state was measured with a Biacore T200 instrument (GE Healthcare) and plotted against the concentration of antibody and fit to a 1:1 binding model. The steady state KD was determined as the antibody concentration at a response equal to half the maximal response (Rₘₐₓ).
# Steady state affinity assay was performed as described in section 1.1.7 of Example 1.
# mouse OX40L = target: T3, mouse OX40L; test: flow cytometry on CHO-S cells / ELISA on recombinant protein (sentence does not say which)
# AVI-GST-His6-hOX40L [3] = target: T4, AVI-GST-His6-hOX40L; test: cell-based or functional assay
# [4] = target: T2, recombinant human OX40L protein (R&D …); test: cell-based or functional assay
# AVI-GST-His6-hOX40L [5] = target: T4, AVI-GST-His6-hOX40L; test: cell-based or functional assay; remark: listed apart in the source
# [6] = target: T2, recombinant human OX40L protein (R&D …); test: cell-based or functional assay; remark: listed apart in the source
# AVI-GST-His6-hOX40L [7] = target: T4, AVI-GST-His6-hOX40L; test: cell-based or functional assay; remark: listed apart in the source
# AVI-GST-His6-hOX40L [8] = target: T4, AVI-GST-His6-hOX40L; test: cell-based or functional assay; remark: listed apart in the source
# [9] = target: T2, recombinant human OX40L protein (R&D …); test: SPR steady state, Biacore T200; OX40L immobilised on CM5, FcFab in solution
# Procedure: as §1
# As with the IgG clones, binding affinity to human OX40L was determined for all twelve FcFabs using steady state affinity assay as described in section 1.1.7 of Example 1. […]
# [10] = target: T2, recombinant human OX40L protein (R&D …); test: cell-based or functional assay; remark: listed apart in the source
# AVI-GST-His6-hOX40L [11] = target: T4, AVI-GST-His6-hOX40L; test: cell-based or functional assay; remark: listed apart in the source
# [12] = target: T2, recombinant human OX40L protein (R&D …); test: SPR steady state affinity to human OX40L
# Procedure: as §1
# [13] = target: T2, recombinant human OX40L protein (R&D …); test: SPR steady state, Biacore T200; OX40L immobilised on CM5, antibody in solution; remark: listed apart in the source
# Procedure: as §1
# AVI-GST-His6-hOX40L [14] = target: T4, AVI-GST-His6-hOX40L; test: cell-based or functional assay; remark: listed apart in the source
Binder,binding result [1],Kd [2] [nM],binding result (mouse OX40L),IC50 (read off the curve) (AVI-GST-His6-hOX40L [3]) [nM],Primary T cell activation assay IC50 [4] [nM],OX40L neutralization/OX40-HEK Reporter IC50 (AVI-GST-His6-hOX40L [5]) [nM],Primary T cell activation assay IC50 [6] [nM],OX40L neutralization/OX40-HEK Reporter IC50 (AVI-GST-His6-hOX40L [7]) [nM],IC50 (read off the curve) (AVI-GST-His6-hOX40L [8]) [nM],Kd [9] [nM],Primary T cell activation assay IC50 [10] [nM],OX40L neutralization/OX40-HEK Reporter IC50 (AVI-GST-His6-hOX40L [11]) [nM],Kd [12] [nM],Kd [13] [nM],IC50 (read off the curve) (AVI-GST-His6-hOX40L [14]) [nM]
97G07 (IgG) (antibody) heavy: not shown light: YYELTQPLSVSVALGQTARIPCGGNNIENKNVHWYQQKPGQAPVLVIYRDSNRPSGIPERFSGSNSGNTATLSINRAQAGDEADYYCQVWDSNTVIFGGGTKVTVLGQPKAAPSVTLFPPSSEELQANKATLVCLISDFYPGAVTVAWKADSSPVKAGVETTTPSKQSNNKYAASSYLSLTPEQWKSHKSYSCQVTHEGSTVEKTVAPTECS,binds,16.6,no binding,~9,16.7,7.5,,,,,,,,,
"97G07 (FcFab) (antibody, IgG1, also called 97G07(2); anti-OX40L FcFab antibody 97G07) heavy: EPKSSDKTHTCPPCPAPPVAGPSVFLFPPKPKDTLMISRTPEVTCVVVDVSHEDPEVKFNWYVDGVEVHNAKTKPREEQYNSTYRVVSVLTVLHQDWLNGKEYKCAVSNKALPSSIEKTISKAKGQPREPQVYTLPPSREEMTKNQVSLTCLVKGFYPSDIAVEWESNGQPENNYKTTPPVLDSDGSFFLYSKLTVDKSRWQQGNVFSCSVMHEALHNHYTQKSLSLSPGAGGGGSGGGGSGGGGSQLQLQESGPGLVKPSETLSLTCTVSGGSISSSSYYWGWIRQPPGKGLEWIGGIGSVDYSGNTYYKPSLKSRVTISVDTSKNQFSLKLSTVTAADTAVYHCARHRGIYFFDYWGQGTLVTVSSASTKGPSVFPLAPSSKSTSGGTAALGCLVKDYFPEPVTVSWNSGALTSGVHTFPAVLQSSGLYSLSSVVTVPSSSLGTQTYICNVNHKPSNTKVDKRVEPKSC light: YYELTQPLSVSVALGQTARIPCGGNNIENKNVHWYQQKPGQAPVLVIYRDSNRPSGIPERFSGSNSGNTATLSINRAQAGDEADYYCQVWDSNTVIFGGGTKVTVLGQPKAAPSVTLFPPSSEELQANKATLVCLISDFYPGAVTVAWKADSSPVKAGVETTTPSKQSNNKYAASSYLSLTPEQWKSHKSYSCQVTHEGSTVEKTVAPTECS",,,,,,,4.6,6.2,~6,27.9,,,,,
"Ref2_Anti_OX40L (antibody, human IgG1, kappa, V domains shown) VH: EVQLLESGGGLVQPGGSLRLSCAASGFTFNSYAMSWVRQAPGKGLEWVSIISGSGGFTYYADSVKGRFTISRDNSRTTLYLQMNSLRAEDTAVYYCAKDRLVAPGTFDYWGQGALVTVSS VL: DIQMTQSPSSLSASVGDRVTITCRASQGISSWLAWYQQKPEKAPKSLIYAASSLQSGVPSRFSGSGSGTDFTLTISSLQPEDFATYYCQQYNSYPYTFGQGTKLEIKR",,,,~3,,,,,~6,,9.3,6.6,15,15,~4
67B06 (FcFab) (antibody) heavy: EPKSSDKTHTCPPCPAPPVAGPSVFLFPPKPKDTLMISRTPEVTCVVVDVSHEDPEVKFNWYVDGVEVHNAKTKPREEQYNSTYRVVSVLTVLHQDWLNGKEYKCAVSNKALPSSIEKTISKAKGQPREPQVYTLPPSREEMTKNQVSLTCLVKGFYPSDIAVEWESNGQPENNYKTTPPVLDSDGSFFLYSKLTVDKSRWQQGNVFSCSVMHEALHNHYTQKSLSLSPGAGGGGSGGGGSGGGGSQLQLQESGPGLVKPSETLSLTCSVSGGSISTSSYYWGWIRQPPGKGLEWSGSIYYSGSTYYRPSLQGRATISVDTSKNQFSLKLTSVTAADTAVYYCARHRGSYFFDIWGLGTLVTVSSASTKGPSVFPLAPSSKSTSGGTAALGCLVKDYFPEPVTVSWNSGALTSGVHTFPAVLQSSGLYSLSSVVTVPSSSLGTQTYICNVNHKPSNTKVDKRVEPKSC light: SYELTQPLSVSVALGQTARMTCGGSDIENKNVHWYQQKPGQAPVLVIHRDNNRPSGIPERFSGSNSGNTATLTISRAQAGDEADYYCQVRDSNIVVFGGGTKLTVLGQPKAAPSVTLFPPSSEELQANKATLVCLISDFYPGAVTVAWKADSSPVKAGVETTTPSKQSNNKYAASSYLSLTPEQWKSHKSYSCQVTHEGSTVEKTVAPTECS,,,,,,,7.2,5.5,~6,20.3,,,,,
"Ref1_Anti-OX40L (US Pat. No. 9,139,653) (antibody, V domains shown) VH: EVQLVESGGGLVQPGGSLRLSCAASGFTFSNYAMNWVRQAPGKGLEWVSTISGSGGATRYADSVKGRFTISRDNSRNTVYLQMNSLRVEDTAVFYCTKDRLIMATVRGPYYYGMDVWGQGTTVTVSS VL: DIQMTQSPSSLSASVGDRVTITCRASQSISSYLNWYQQKPGKAPNLLIYAASSLQSGVPSRFSGSGSETDFTLTISSLQPEDFATYYCQQSHSVSFTFGPGTKVDIK",,,,,,,,,,,5.7,7.3,31.9,31.9,~5

# The remaining lines, values ahead:
binding result [1],Kd [2] [nM],binding result (mouse OX40L),IC50 (read off the curve) (AVI-GST-His6-hOX40L [3]) [nM],Primary T cell activation assay IC50 [4] [nM],OX40L neutralization/OX40-HEK Reporter IC50 (AVI-GST-His6-hOX40L [5]) [nM],Primary T cell activation assay IC50 [6] [nM],OX40L neutralization/OX40-HEK Reporter IC50 (AVI-GST-His6-hOX40L [7]) [nM],IC50 (read off the curve) (AVI-GST-His6-hOX40L [8]) [nM],Kd [9] [nM],Primary T cell activation assay IC50 [10] [nM],OX40L neutralization/OX40-HEK Reporter IC50 (AVI-GST-His6-hOX40L [11]) [nM],Kd [12] [nM],Kd [13] [nM],IC50 (read off the curve) (AVI-GST-His6-hOX40L [14]) [nM],Binder
binds,23.2,no binding,,28.5,18.9,,,,,,,,,,88B06 (IgG) (antibody) heavy: not shown light: SYELTQPLSVSVALGQTARISCGGNNIGRKNVHWYQQKPGQAPVLVIYGDSNRPSGIPERFSGSNSGNTATLTIGRAQAGDEADYYCQVWDSSTVFGGGTKLTVLGQPKAAPSVTLFPPSSEELQANKATLVCLISDFYPGAVTVAWKADSSPVKAGVETTTPSKQSNNKYAASSYLSLTPEQWKSHKSYSCQVTHEGSTVEKTVAPTECS
binds,12.7,no binding,~5,20.9,5.2,,,,,,,,,,"67B06 (IgG) (antibody, also called 67B06 (IgG format)) heavy: not shown light: SYELTQPLSVSVALGQTARMTCGGSDIENKNVHWYQQKPGQAPVLVIHRDNNRPSGIPERFSGSNSGNTATLTISRAQAGDEADYYCQVRDSNIVVFGGGTKLTVLGQPKAAPSVTLFPPSSEELQANKATLVCLISDFYPGAVTVAWKADSSPVKAGVETTTPSKQSNNKYAASSYLSLTPEQWKSHKSYSCQVTHEGSTVEKTVAPTECS"
binds,42.4,no binding,,7.4,3.7,,,,,,,,,,95B06 (IgG) (antibody) heavy: not shown light: DMQMTQSPSSLSASVGDRVTITCRASQGIRNDLDWYQQKPGKVPKRLIHAASSLQSGVPSRFSGSGSGTEFTLTISSLQPEDFVTYYCLQHNTYPWTFGQGTKLEIKRTVAAPSVFIFPPSDEQLKSGTASVVCLLNNFYPREAKVQWKVDNALQSGNSQESVTEQDSKDSTYSLSSTLTLSKADYEKHKVYACEVTHQGLSSPVTKSFNRGEC
